Measurements reported in patent US20190106498A1, “TREATMENT FOR ACUTE MYELOID LEUKEMIA” (priority 2017, published 2019).

Key:
human AML cells = experiment: αCD70/decitabine treatment of AML patient-derived xenografts in NSG mice; type: in vivo; details: αCD70 10 mg/kg, decitabine 1.5 mg/kg/d, 5 days
Description: FIGS. 1A-1I αCD70/decitabine combination therapy eradicates human CD34^+CD38^- AML stem/progenitor cells in murine xenografts. 5×10^6 FACS-purified […] cells from BM of newly diagnosed AML patients (patient […]) were injected intravenously into the tail vein of sub-lethally irradiated NSG mice. After engraftment (day 32 (P10) and day 97 (P25) after transplantation), mice were randomized and subjected to treatment with control mAb and 10 mg/kg αCD70 mAb (41D12-D) intraperitoneally (total of 3 injections) or decitabine and (1.5 mg/kg/day) for five consecutive days alone or in combination. One day after the last treatment, animals were sacrificed and blood, spleen and BM were analyzed. (FIG. 1A) Experimental setup. (FIG. 1B) CD70 expression on CD34^+CD38^- AML stem/progenitor cells. Isotype is depicted in grey; CD70 staining in black (P10) and blue (P25). […] (FIG. 1G) Representative FACS plots and (FIG. 1H) quantification indicating the frequency of CD38^- AML cells within […]^loin^-CD90^-CD34+ AML stem/progenitor cell population. […] 32 days after engraftment (engraftment in PB: 14.45+/-0.95%), NSG mice were randomized to treatment with vehicle (Veh), αCD70 mAb (αCD70, ARGX-110, 10 mg/kg), decitabine (D, 1.5 mg/kg/d) or the combination (αCD70/D) for 5 days and bone marrow, spleen and blood were analyzed.

AML LSCs = experiment: Colony plating assay of AML LSCs; type: cell-based, human; details: P6, P8, P11; all disease risk categories
Description: (§1) FIGS. 3A-3F Anti-CD70/decitabine co-treatment reduces re-plating capacity of human CD34+CD38− AML stem/progenitor cells. […] Colonies and cells were enumerated after 14 days. (FIG. 3A) Colonies per 1×10^3 plated cells. (FIG. 3B) Cells per colony. (FIG. 3C) Serial re-plating experiments. (d-f) FACS-purified lin-CD90+CD34+CD38− stem/progenitor cells from BM of “healthy” donors were cultured and plated in methylcellulose as described in (a-c). (FIG. 3D) Colonies per 1×10^3 plated cells. (FIG. 3E) Cells per colony. (FIG. 3F) Serial re-plating experiments. Data are represented as mean±S.D. Statistics: One-way-ANOVA. Dunnett's post-test (vs. αCD70/D); *, P<0.05; **, P<0.01; ***, P<0.001.

healthy stem cells = type: cell-based, human
Description: as §1

blasts = experiment: Phase I/II trial: blasts in bone marrow and peripheral blood (cytomorphology, flow cytometry, MRD); type: in vivo, human
Description: (§2) FIGS. 6A-6C Bone marrow (BM) blast load was assessed by cytomorphology (FIG. 6A), and flow cytometry using leukemia-associated immunophenotype (LAIP) gating (FIG. 6B) and blast gating (SSClow CD45dim; FIG. 6C). The latter method was used to determine measurable/minimal residual disease (MRD) status of the patient.
as §2, with “7A-7C Peripheral blood (PB)” for “6A-6C Bone marrow (BM)”, “7A),” for “6A),”, “7B)” for “6B)”, “CD45 dim;” for “CD45dim;”, “7C).” for “6C).”
Minimal residual disease (MRD) assessments were performed on bone marrow aspirates and/or whole blood collected at time points as specified in FIG. 5. Flow cytometry was utilized as the primary method of MRD analysis. Suitable flow cytometry markers for MRD assessment and determining AML subtype include CD16, CD13, CD34, CD117, CD11 b, CD10, HLA-DR, CD45, CD35, CD64, IREM-2, CD36, CD105, CD14, CD33, CD71, CD36, CD105, CD33, CD71, cTdT, CD56, CD7, CD19, cMPO, cLactoferrin, cLysozyme. An additional panel was used as a part of the trial, focusing on CD70, CD27 expression as well as markers indicative of stem cell potential or myeloid differentiation: CD27, CD70, CD34, CD117, CD11 b, HLA-DR, CD45, CD38, and CD123. When available, flow cytometry results were compared to other molecular approaches such as polymerase chain reaction (PCR) test.
For each patient, the number of blasts in bone marrow and peripheral blood were assessed at various time-points as outlined in FIG. 5.
To assess bone marrow blasts, bone marrow aspirates taken at the various time points were analysed. Methylcellulose colony assays using FACS sorted monocytes (mononuclear cells (CD45^dim) were selectively sorted by excluding doublets, dead cells and lymphocytes using Annexin V and antibodies for CD19 and CD4/CD8) were used to assess the number of LSCs in the bone marrow. In addition, bone marrow blast percentages were also assessed by cell morphology and flow cytometric analysis.

[1] = tested on: CD70-expressing tumor cells; details: cited from earlier work
[2] = patient 1001001, 1 mg/kg with AZA, C3D1
[3] = patient 1001001, 1 mg/kg with AZA, C4D1
[4] = patient 1001002, 1 mg/kg with AZA, C2D17
[5] = patient 1001002, single dose 1 mg/kg

B1: ARGX-110: IgG1 anti-CD70 antibody with defucosylated Fc region; VH SEQ ID NO: 4, VL SEQ ID NO: 8 (antibody, V domains shown)
VH: EVQLVESGGGLVQPGGSLRLSCAASGFTFSVYYMNWVRQAPGKGLEWVSDINNEGGTTYYADSVKGRFTISRDNSKNSLYLQMNSLRAEDTAVYYCARDAGYSNHVPIFDSWGQGTLVTVSS
VL: QAVVTQEPSLTVSPGGTVTLTCGLKSGSVTSDNFPTWYQQTPGQAPRLLIYNTNTRHSGVPDRFSGSILGNKAALTITGAQADDEAEYFCALFISNPSVEFGGGTQLTVLG
modifications: IgG1, defucosylated Fc; Custom antibody fragment
number of CD34+CD38− and CD34+CD45− cells (LSCs) (human AML cells): reduced both the number of CD34+CD38− cells and of CD34+CD45− cells
total engraftment in the bone marrow, spleen and blood (human AML cells): reduced total engraftment
number of colonies formed by AML LSCs (AML LSCs): reduce the number of colonies
effect on healthy stem cells (colonies, cells per colony, re-plating) (healthy stem cells): no effect on healthy cells compared to vehicle alone
PB blast percentage (blasts; following monotherapy, C1D1 vs earlier): reduced
bone marrow blasts according to MRD criteria (blasts; in vivo): significantly reduced
bone marrow blast percentage (blasts; majority of patients, by C1D1 following monotherapy): at least partially or completely reduced by C1D1
BM blasts by flow cytometry (blasts; [2]): 2.8%
MRD for peripheral blood (blasts; [2]): 0.3%
minimal residual disease analysis (MRD), bone marrow (blasts; [2]): 0.2%
peripheral blood blast percentage by cell morphology (blasts; [3]): 0%
peripheral blood blast percentage by flow cytometry (blasts; [3]): 0.8%
peripheral blood MRD class (blasts; patient 1001001, 1 mg/kg with AZA, C4D17): MRD-negative
peripheral blood blasts (blasts; patient 1001001, 1 mg/kg with AZA, after first complete cycle (C2D1)): cleared
blast cell populations by cell morphology and flow cytometry (blasts; patient 1001001, single (loading) dose 1 mg/kg): reduction in bone marrow and in peripheral blood
percentage of blasts in peripheral blood by cell morphology (blasts; [4]): 0%
percentage of blasts in peripheral blood by flow cytometry (blasts; [4]): 0.8%
overall blast percentage in peripheral blood (blasts; patient 1001002, 1 mg/kg with AZA, end of cycle 1 (C2D1)): approaching zero
overall blast percentage in peripheral blood (blasts; patient 1001002, after loading dose 1 mg/kg (C1D1 vs screening)): fell
percentage of total blasts in bone marrow by cell morphology (blasts; [5]): an increase was observed
percentage of total blasts in bone marrow by flow cytometry (blasts; [5]): appeared to be reduced
blast percentage (blasts; patient 1001003, C1D1): stable
peripheral blasts (blasts; patient 1001003, with AZA, 1 cycle (C2D1)): no peripheral blasts
PB blast percentage (blasts; under combination therapy with aza, from C1D1 onwards): further reduced
antibody dependent cellular phagocytosis (ADCP) [1]: increase antibody dependent cellular phagocytosis (ADCP) of CD70-expressing cells
lysis via ADCC and CDC [1]: lyse CD70-expressing tumor cells
ADCC functionality ([1]; defucosylated Fc (Potelligent)): increased ADCC functionality compared to a fucosylated counterpart
